Measured values reported in patent publication US20260265800A1, “NEW FUCOSYLTRANSFERASES FOR IN VIVO SYNTHESIS OF LNFP-III” (DSM IP Assets B.V., priority 2022, published 2026).

Legend:
β-galactosidase activity [1] = settings: LacZ assay, cited from earlier work; for % Activity relative to PglpF: PglpF as positive reference, a range indicates results from multiple assays
β-galactosidase activity [2] = assay: LacZ assay of promoter strength; type: cell-based; settings: LacZ assay at 30° C.; Plac induced with IPTG
Method: Increasing the promoter strength driving the expression of the desired enzyme may be one way of doing this. The strength of a promoter can be assessed using a lacZ enzyme assay where β-galactosidase activity is assayed as described previously (see e.g., Miller J. H. Experiments in molecular genetics, Cold spring Harbor Laboratory Press, NY, 1972). Briefly the cells are diluted in Z-buffer and permeabilized with sodium dodecyl sulfate (0.1%) and chloroform. The LacZ assay is performed at 30° C. Samples are preheated, the assay initiated by addition of 200 μl ortho-nitro-phenyl-β-galactosidase (4 mg/ml) and stopped by addition of 500 μl of 1 M Na2CO3 when the sample had turned slightly yellow. The release of ortho-nitrophenol is subsequently determined as the change in optical density at 420 nm. The specific activities are reported in Miller Units (MU) [A420/(min*ml*A600)]. A regulatory element with an activity above 10,000 MU is considered strong and a regulatory element with an activity below 3,000 MU is considered weak, what is in between has intermediate strength. An example of a strong regulatory element is the PglpF promoter with an activity of approximately 14.000 MU and an example of a weak promoter is Plac which when induced with IPTG has an activity of approximately 2300 MU. […]

LNnT = assay: Deep well assay: HMO profile of LNnT-producing strains expressing α-1,3-fucosyltransferases (HPLC); type: cell-based, Escherichia coli
Method: Deep Well Assays in the current examples were performed as originally described to Lv et al (Bioprocess Biosyst Eng 20 (2016) 39:1737-1747) and optimized for the purposes of the current invention. More specifically, the strains disclosed in the present example were screened in 96 deep well plates using a 4-day protocol. During the first 24 hours, precultures were grown to high densities (OD600 up to 5) and subsequently transferred to a medium that allowed induction of gene expression and product formation.
More specifically, during day 1, fresh precultures were prepared using a basal minimal medium (BMM) (pH 7.0) supplemented with magnesium sulphate (0.12 g/L), thiamine (0.004 g/L) and glucose (5.5 g/L). Basal Minimal medium had the following composition: NaOH (1 g/L), KOH (2.5 g/L), KHzPO4 (7 g/L), NH&HzPO4 (7 g/L), Citric acid (0.5 g/l), trace mineral solution (5 mL/L). The trace mineral stock solution contained; ZnSO~*7H~O 0.82 g/L, Citric acid 20 g/L, Mn$04*H&O 0.98 g/L, FeSO4*7H&O 3.925 g/L, CuSO4*5H~O 0.2 g/L. The pH of the Basal Minimal Medium was adjusted to 7.0 with 5 N NaOH and autoclaved. The precultures were incubated for 24 hours at 34° C. and 1000 rpm shaking and then further transferred to 0.75 ml of a new BMM (pH 7,5) to start the main culture. The new BMM was supplemented with magnesium sulphate (0.12 g/L), thiamine (0.02 g/L), a bolus of glucose solution (0.1-0.15 g/L) and a bolus of lactose solution (5-20 g/L) Moreover, a 20% stock solution of sucrose (40-45 g/L) or maltodextrin (19-20 g/L) was provided as carbon source, accompanied by the addition of a specific hydrolytic enzyme, sucrose hydrolase or glycoamylase, respectively, so that glucose was released at a rate suitable for carbon-limited growth and similar to that of a typical fed-batch fermentation process. The main cultures were incubated for 72 hours at 28° C. and 1000 rpm shaking. For the analysis of total broth, the 96 well plates were boiled at 100° C., subsequently centrifuged, and finally the supernatants were analysed by HPLC.
Genetically modified cells expressing individual α-1,3-fucosyltransferase enzymes were screened for their ability to produce the fucosylated HMO LNFP-III.
Genetically modified strains expressing the six individual α-1,3-fucosyltransferases (table 5) were generated as described in the “Method” section. The cells were screened in the deep well assay setup as described in the “Method” section.
The molar content of individual HMOs produced by the strains was measured by HPLC.
The results of the LNFP-III producing cells are shown in table 7 as the fraction of the total molar HMO content (in percentage, %) produced by each strain.

[3] = two genomic copies and high copy plasmid (pUC57-Parm1-PglpF)

Row | Molecule | % Activity relative to PglpF (β-galactosidase activity [1]) | Strength (β-galactosidase activity [1]) | promoter activity in Miller Units (β-galactosidase activity [2]) | LNDFH-III, % of total HMO molar (mM) content produced by each strain (LNnT; FT copy nr as in table 7) | other results
1 | PglpF: promoter sequence, SEQ ID NO: 28; positive reference of the LacZ assay (nucleic acid, listed as Escherichia coli) DNA: GCGGCACGCCTTGCAGATTACGGTTTGCCACACTTTTCATCCTTCTCCTGGTGACATAATCCACATCAATCGAAAATGTTAATAAATTTGTTGCGCGAATGATCTAACAAACATGCATCATGTACAATCAGATGGAATAAATGGCGCGATAACGCTCATTTTATGACGAGGCACACACATTTTAAGTTCGATATTTCTCGTTTTTGCTCGTTAACGATAAGTTTACAGCATGCCTACAAGCATCGTGGAGGTCCGTGACTTTCACGCATACAACAAACATTAACCAAGGAGGAAACAGCT | 100% | high (A regulatory element with an activity above 10,000 MU is considered strong) | approximately 14.000 MU |  | 
2 | Plac_wt: promoter sequence, SEQ ID NO: 37 (nucleic acid, listed as Escherichia coli, expressed or natural sequence) DNA: TGTGAGTTAGCTCACTCATTAGGCACCCCAGGCTTTACACTTTATGCTTCCGGCTCGTATGTTGTGTGGAATTGTGAGCGGATAACAATTTCACACAGGAAACAGCT | 15-28% | low (a regulatory element with an activity below 3,000 MU is considered weak) | approximately 2300 MU |  | 
3 | Hpull1: α-1,3-fucosyltransferase from Helicobacter pullorum, GenBank WP_065831246.1, SEQ ID NO: 3 (protein, listed as Helicobacter pullorum) MRKDLVIIRVDGGIASQISFVALGLEFESRGYKVKYDLSWFDEFGNGICNEQNGYDRSYNIVFDIPKAFPDIKCEIASRDEIEIYRKKYFVDNEEVIELKPPLYVGGYLGRHFNFKYRDFFAKHFNPKEIQESDSECKILLDNILSNHSCGVHIRRGDLSKEHVVYGKPLSVEYFLKNIQLVLQIEPKSKFYFFGDDLEWVKKKVIPSLNSIEYEICNVNSVEKGYLDLYLLSRCKIIIASQGSMGKFAKMLASDTETLLIAPNKNAPMENMIMVNWVDSYESSGEKQIQKPLSWRNKIRLKIYKKFRNKLLQKGIL |  |  |  | do not produce any | 
4 | Med1: α-1,3-fucosyltransferase from Mediterranea sp. An20, GenBank WP_087337236.1, SEQ ID NO: 4 (protein, listed as Mediterranea sp.) MRKILILFYNKLWGVSWENEACASIPDGFELTDDRSRMAEADAVVFHLPDLARCMDGEEIEKRDGQLWVTWNLECDDNYPWVEAPEIRDLFDLRIGYRQQDDVWYPYFSFIRAEAFTRLPPRRPPLDKACLFVSSPFNRSHRFEFLRELMRHTEVDSFGRMLHNKDLPADEGRKTLMEKIADYKFVIGVENALARDYVTEKFFQPLLAGTVPVYRGAPNVEEFAPGRHCFVDARAFRSPADLAGFMNRCYEHPALYDELTAWRTQPLQPGFVQKLEQVKEHPFVRLCRVVEEKIRRIEYKIT |  |  |  | do not produce any | 
5 | Hacin2: α-1,3-fucosyltransferase from Helicobacter acinonychis, GenBank WP_104687422.1, SEQ ID NO: 5 (protein, listed as Helicobacter acinonychis) MFQPLLDAYTDSAYSDASDHKPPLNIAIANGWGGTKGFEASVLYFILSWRYKIALHENPNKPADLVFSNPLGQARKILSYQNTKRVFYTGENEVPNFNLFDYAIGFDGLDFKERYLRMPLYYASLHDKAQSVNDTTAPYTLKSDSLYALKKPAHCFKEDHPKLCSVVKGESDPFKRGFASFVAGNANAPMRNAFCEALNSVEPVTGGGAVKNTLGYNVTNKSEFLSQYKFNLCFENAQGYGYVTEKIIDAYFSHTIPIYWGSPSVAQDFNPKSFVNVHDFKDFDGAIDYIRYLHTHENAYLDMLYENPLNVIDGKACFYQDLSFKKILDFFKTILENDTIYHNNPFVFDRDLHEPLVSIDNLRADLLLLKDNYDGLKTDYDGLKTDYDGLKTDYDGLKTDYDGLKTDYDGLKTDYDGLKTDYDHLFKSALPLLELSQTTSFKIYHKIYQKTLPLLRMARKLVKK |  |  |  | do not produce any | 
6 | Parm1: α-1,3-fucosyltransferase from Parabacteroides merdae, GenBank WP_129943149.1, SEQ ID NO: 2 (protein, listed as Parabacteroides merdae) MKHETPVLSFIIPIYNVELYLPACLESVLHLPLTNFEIILIDDGSTDNSGRIADKYAENYSHIHVIHQTNAGLSATRNRGVELAEGNYIAFLDSDDWLIGDQIVDIYLQTSQANADMGMGNSLFCYPDGSNGNPFAPIPQNLIGQTIDGKYCFTELMKQNVYPPMVYNYIYRREWLLSHQLRFESVLHEDELWTPIALCYARRIVVTNIDFYGYRQREGSIMTSLRREKRIHDLFFIADRLIRLAENYRFDSDDKNLKSQLYVRSYLLYKIAFSSLAHIHDTRFILPTHHLYQLFAIKNKLTADARNTCINQYKTAKQGLKSYLKWRNSYWIRKLTYEISPETKLILIFNTMWNKPLDIPIQKIPANCIITTDRRFLSTADFVVFHLPDLSNELEEDLDKPEGQKWVAWSLECEENYHFLKDPEFMEVFDYKMSYHQDADIVYPYYRYEYRKELILMPEFSFHEKKDICMMISSPFNQSGRQEYLQELMQYISIDSYGKLFNNCKLEKDSGQDSKMELYRQYKFVIAFENSRANDYVTEKFYDPLLAGAVPIYLGAPNIETFAPGENCSVDIRNFSSPKELAAFLIEACKNEKIYNKFLQWKKEPLKPEFMKKIEAQRVHPFIRLCHLLHLPPPTSRYDGARKKNAHRS |  |  |  |  | LNnT, % of total HMO molar (mM) content produced by each strain (LNnT; FT copy nr as in table 7): 21%; amount of LNnT produced, % of the total HMO content (LNnT; two genomic copies): 14%; relative amount of LNFP-III produced, % of the total HMO content (LNnT; two genomic copies): 81%; amount of LNnT produced, % of the total HMO content (LNnT; [3]): 5%; relative amount of LNFP-III produced, % of the total HMO content (LNnT; [3]): 86%
